Data: the NTF2 design screens of Basanta et al. (2020)

Experiment: protease stability score; higher = more stable; yeast display proteolysis, trypsin and chymotrypsin;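 further: relative to predicted unfolded state with 0 unfolded-like and 1 meaning tenfold more protease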

Row | Sequence | protease stability score
1 | SEDHHSLRNAWELLIKSIKTGDENLMERFADPSTKSRIDGVELVGREEVVHYFMQLRVKDVKLDEVDVVDGRVVIDGTLHGEYNGREETHKVRLFINKVDGQWILHSVEFH | 0.938
2 | DDKDEILLKLAKIVFENELTGDEESLEHLFDPNTRRIVNGKELVGWELISKYWKEQKKEMRVELRLRRHDIQGDKTRVRGEEILEIGEFKLILDVEITIVVINGRFTRIEIRVK | 0.185
3 | SKEDEDFNERTREWLEILETGDWRKLARLLDPNVLNIVGDKEHHGREEVIKSFRTYLEKVPNMRFTTRRIRLQGDKVDLDGDLYFNGKEIKVRIFLVIYDGRVHSMEVREE | 1.09
4 | EEEEKEADEEVRIMIKSLYTGDEDTVHEMADPNALVKVGDKTIHGMHLFLHTWIRRMEKHGIRVEVRLDDLEIQGEKIHIHLTLIYRFNGKDYPIEFEIHVNKINGQWRVSEIIEI | 1.25
5 | DEEEKHVRKMVEIESHSHQTGDFDSIRELADPHMRIDINGVELHGWKEFERFLREIRVHHIKIKSVRDINGVAVVDTIVHGHIDGRTDTFDAHVVILKINGQWRIKSIKIE | 0.918
6 | DEERQTLEEWARELLQIHKTGDEERHKEYADPDDLLRIGDKDFHGMEHVLHALVQHWEKMGVKHLEIKRLRVINGVMHVEGVLHVGDKTHDVKLHLFIFNGRIERVEIRIE | 1.33
